Data taken from patent publication EP4541814A1.

Key:
[1] = biological target: epidermal growth factor receptor (EGFR), Example 4A analyte (UniProt P00533); experiment: SPR (Biacore 8K+), fusion protein amine-coupled to CM5, EGFR 200 nM, report point late binding
[2] = biological target: EGFR (SinoBiological, 10001-H08H) (UniProt P00533); experiment: SPR (Biacore 8K+), fusion protein amine-coupled to CM5, EGFR 200 nM
[3] = biological target: trastuzumab-GFP (prepared in-house); experiment: SPR (Biacore 8K+), fusion protein amine-coupled to CM5, Fc block 2 uM, then trastuzumab-GFP 1 uM

| Binder | trastuzumab-eGFP response in analyte binding late (1 µM, RU) [3] | further results |
| --- | --- | --- |
| Candidate 4A-5: vh167 fusion protein (SEQ ID NO:169) (VHH) VHH: QVQLQQSGGGSVQAGGSLRLSCTISGRTFSSYAMGWFRQRPGKEREFVAAINWSSGSTYYADSVKGRFTISRDNAKNTVYLQMNSLKPEDTAVYYCAAGYQINSGNYNFKDYEYDYWGQGTQVTVSS |  | Binding capacity EGFR (200 nM) (RU) [1]: 2350 RU |
| Candidate 4B-4: vh167 fusion protein (SEQ ID NO:175) (VHH) VHH: QVQLQQSGGGSVQAGGSLRLSCTISGRTFSSYAMGWFRQRPGKEREFVAAINWSSGSTYYADSVKGRFTISRDNAKNTVYLQMNSLKPEDTAVYYCAAGYQINSGNYNFKDYEYDYWGQGTQVTVSS |  | EGFR response in analyte binding late (200 nM, RU) [2]: 1900 RU |
| Candidate 4B-5: vh60 fusion protein (SEQ ID NO:172) (VHH) VHH: QVQLQESGGGLVQPGGSLRLSCAASGRTSINPYMAWFRQAPGKQREFVAAISSGGVYTYYTDSVKGRFTISRDNAKTTVYLQMNSLKPEDTAVYYCAADFRRGGNWNVDPFRYDYQYWGQGTQVTVSS | 4300 RU |  |
| Candidate 4B-6: vh113 fusion protein (SEQ ID NO:173) (VHH) VHH: QVQLQQSGGGSVQAGGSLRLSCTISGRTSINPYMAWFRQRPGKEREFVAAISSGGVYTYYADSVKGRFTISRDNAKNTVYLQMNSLKPEDTAVYYCAADFRRGGNWNVDPFRYDYDYWGQGTQVTVSS | 3910 RU |  |
